B1: TBC1 domain family member 22B (Homo sapiens), Q9NU19 (parent)
chain: MAAENSKQFWKRSAKLPGSIQPVYGAQHPPLDPRLTKNFIKERSKVNTVPLKNKKASSFHEFARNTSDAWDIGDDEEEDFSSPSFQTLNSKVALATAAQVLENHSKLRVKPERSQSTTSDVPANYKVIKSSSDAQLSRNSSDTCLRNPLHKQQSLPLRPIIPLVARISDQNASGAPPMTVREKTRLEKFRQLLSSQNTDLDELRKCSWPGVPREVRPITWRLLSGYLPANTERRKLTLQRKREEYFGFIEQYYDSRNEEHHQDTYRQIHIDIPRTNPLIPLFQQPLVQEIFERILFIWAIRHPASGYVQGINDLVTPFFVVFLSEYVEEDVENFDVTNLSQDMLRSIEADSFWCMSKLLDGIQDNYTFAQPGIQKKVKALEELVSRIDEQVHNHFRRYEVEYLQFAFRWMNNLLMRELPLRCTIRLWDTYQSEPEGFSHFHLYVCAAFLIKWRKEILDEEDFQGLLMLLQNLPTIHWGNEEIGLLLAEAYRLKYMFADAPNHYRR
partner: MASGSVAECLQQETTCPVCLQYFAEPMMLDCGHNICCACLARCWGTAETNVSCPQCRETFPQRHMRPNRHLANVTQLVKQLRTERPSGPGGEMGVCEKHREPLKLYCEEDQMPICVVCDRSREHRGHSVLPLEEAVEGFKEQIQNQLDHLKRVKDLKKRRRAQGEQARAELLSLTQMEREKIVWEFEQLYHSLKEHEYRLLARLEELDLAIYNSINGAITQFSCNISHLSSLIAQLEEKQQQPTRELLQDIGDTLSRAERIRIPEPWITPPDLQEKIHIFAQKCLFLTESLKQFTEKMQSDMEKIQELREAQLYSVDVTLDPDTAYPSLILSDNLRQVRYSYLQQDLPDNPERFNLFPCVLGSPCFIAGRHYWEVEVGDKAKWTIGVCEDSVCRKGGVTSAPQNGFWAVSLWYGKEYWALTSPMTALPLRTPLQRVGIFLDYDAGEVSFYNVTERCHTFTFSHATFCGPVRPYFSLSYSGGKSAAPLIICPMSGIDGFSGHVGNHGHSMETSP
B2: Coiled-coil domain-containing protein 120 (Homo sapiens), Q96HB5-4 (parent)
chain: MRREPRYQGQVGPDIHTDSERTLSSHQPRPLDSTKMEVKGQLISSPTFNAPAALFGEAAPQVKSERLRGLLDRQRTLQEALSLKLQELRKVCLQEAELTGQLPPECPLEPGERPQLVRRRPPTARAYPPPHPNQAHHSLCPAEELALEALEREVSVQQQIAAAARRLALAPDLSTEQRRRRRQVQADALRRLHELEEQLRDVRARLGLPVLPLPQPLPLSTGSVITTQGVCLGMRLAQLSQEDVVLHSESSSLSESGASHDNEEPHGCFSLAERPSPPKAWDQLRAVSGGSPERRTPWKPPPSDLYGDLKSRRNSVASPTSPTRSLPRSASSFEGRSVPATPVLTRGAGPQLCKPEGLHSRQWSGSQDSQMGFPRADPASDRASLFVARTRRSNSSEALLVDRAAGGGAGSPPAPLAPSASGPPVCKSSEVLYERPQPTPAFSSRTAGPPDPPRAARPSSAAPASRGAPRLPPVCGDFLLDYSLDRGLPRSGGGTGWGELPPAAEVPGPLSRRDGLLTMLPGPPPVYAADSNSPLLRTKDPHTRATRTKPCGLPPEAAEGPEVHPNPLLWMPPPTRIPSAGERSGHKNLALEGLRDWYIRNSGLAAGPQRRPVLPSVGPPHPPFLHARCYEVGQALYGAPSQAPLPHSRSFTAPPVSGRYYADFLYPPELSARLSDLTLEGEQSSSSDTQTPGTLV
partner: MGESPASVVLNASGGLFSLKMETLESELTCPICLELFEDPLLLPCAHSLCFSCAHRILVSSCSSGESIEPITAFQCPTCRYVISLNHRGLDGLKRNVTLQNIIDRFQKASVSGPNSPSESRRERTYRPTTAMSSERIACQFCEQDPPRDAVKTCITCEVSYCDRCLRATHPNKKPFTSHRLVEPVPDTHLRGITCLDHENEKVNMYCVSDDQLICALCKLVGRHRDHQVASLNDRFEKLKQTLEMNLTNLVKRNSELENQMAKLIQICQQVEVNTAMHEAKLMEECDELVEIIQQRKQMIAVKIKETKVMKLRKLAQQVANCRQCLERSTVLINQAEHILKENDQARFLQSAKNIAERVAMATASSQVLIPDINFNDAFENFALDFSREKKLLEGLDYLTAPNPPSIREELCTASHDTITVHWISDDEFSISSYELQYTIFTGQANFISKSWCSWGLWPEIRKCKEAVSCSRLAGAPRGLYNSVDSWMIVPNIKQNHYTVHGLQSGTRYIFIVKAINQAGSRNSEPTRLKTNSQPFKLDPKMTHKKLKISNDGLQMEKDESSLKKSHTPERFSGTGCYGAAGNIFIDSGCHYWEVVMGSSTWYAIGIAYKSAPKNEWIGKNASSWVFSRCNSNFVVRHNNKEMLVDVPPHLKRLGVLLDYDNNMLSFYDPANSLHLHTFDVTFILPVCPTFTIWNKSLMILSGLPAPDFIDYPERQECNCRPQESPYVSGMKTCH
B3: Glutaredoxin-3 (Homo sapiens), O76003 (parent)
chain: MAAGAAEAAVAAVEEVGSAGQFEELLRLKAKSLLVVHFWAPWAPQCAQMNEVMAELAKELPQVSFVKLEAEGVPEVSEKYEISSVPTFLFFKNSQKIDRLDGAHAPELTKKVQRHASSGSFLPSANEHLKEDLNLRLKKLTHAAPCMLFMKGTPQEPRCGFSKQMVEILHKHNIQFSSFDIFSDEEVRQGLKAYSSWPTYPQLYVSGELIGGLDIIKELEASEELDTICPKAPKLEERLKVLTNKASVMLFMKGNKQEAKCGFSKQILEILNSTGVEYETFDILEDEEVRQGLKAYSNWPTYPQLYVKGELVGGLDIVKELKENGELLPILRGEN
B4: Syntaxin-3 (Homo sapiens), Q13277 (parent)
chain: MKDRLEQLKAKQLTQDDDTDAVEIAIDNTAFMDEFFSEIEETRLNIDKISEHVEEAKKLYSIILSAPIPEPKTKDDLEQLTTEIKKRANNVRNKLKSMEKHIEEDEVRSSADLRIRKSQHSVLSRKFVEVMTKYNEAQVDFRERSKGRIQRQLEITGKKTTDEELEEMLESGNPAIFTSGIIDSQISKQALSEIEGRHKDIVRLESSIKELHDMFMDIAMLVENQGEMLDNIELNVMHTVDHVEKARDETKKAVKYQSQARKKLIIIIVLVVVLLGILALIIGLSVGLN
partner: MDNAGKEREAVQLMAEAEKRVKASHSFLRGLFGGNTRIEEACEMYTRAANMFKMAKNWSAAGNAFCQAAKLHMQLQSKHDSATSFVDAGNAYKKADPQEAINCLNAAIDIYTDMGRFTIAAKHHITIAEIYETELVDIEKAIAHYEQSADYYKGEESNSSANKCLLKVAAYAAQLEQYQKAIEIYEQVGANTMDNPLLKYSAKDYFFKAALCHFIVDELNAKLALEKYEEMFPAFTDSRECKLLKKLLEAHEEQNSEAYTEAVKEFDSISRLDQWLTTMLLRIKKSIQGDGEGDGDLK
B5: Ribosome assembly protein METTL17, mitochondrial (Homo sapiens), Q9H7H0 (parent)
chain: MAAALKCLLTLGRWCPGLGVAPQARALAALVPGVTQVDNKSGFLQKRPHRQHPGILKLPHVRLPQALANGAQLLLLGSAGPTMENQVQTLTSYLWSRHLPVEPEELQRRARHLEKKFLENPDLSQTEEKLRGAVLHALRKTTYHWQELSYTEGLSLVYMAARLDGGFAAVSRAFHEIRARNPAFQPQTLMDFGSGTGSVTWAAHSIWGQSLREYMCVDRSAAMLVLAEKLLKGGSESGEPYIPGVFFRQFLPVSPKVQFDVVVSAFSLSELPSKADRTEVVQTLWRKTGHFLVLVENGTKAGHSLLMDARDLVLKGKEKSPLDPRPGFVFAPCPHELPCPQLTNLACSFSQAYHPIPFSWNKKPKEEKFSMVILARGSPEEAHRWPRITQPVLKRPRHVHCHLCCPDGHMQHAVLTARRHGRDLYRCARVSSWGDLLPVLTPSAFPPSTAQDPSES
B6: Chaperone Ric-8A (Homo sapiens), Q9NPQ8 (parent)
chain: MEPRAVAEAVETGEEDVIMEALRSYNQEHSQSFTFDDAQQEDRKRLAELLVSVLEQGLPPSHRVIWLQSVRILSRDRNCLDPFTSRQSLQALACYADISVSEGSVPESADMDVVLESLKCLCNLVLSSPVAQMLAAEARLVVKLTERVGLYRERSFPHDVQFFDLRLLFLLTALRTDVRQQLFQELKGVRLLTDTLELTLGVTPEGNPPPTLLPSQETERAMEILKVLFNITLDSIKGEVDEEDAALYRHLGTLLRHCVMIATAGDRTEEFHGHAVNLLGNLPLKCLDVLLTLEPHGDSTEFMGVNMDVIRALLIFLEKRLHKTHRLKESVAPVLSVLTECARMHRPARKFLKAQVLPPLRDVRTRPEVGEMLRNKLVRLMTHLDTDVKRVAAEFLFVLCSESVPRFIKYTGYGNAAGLLAARGLMAGGRPEGQYSEDEDTDTDEYKEAKASINPVTGRVEEKPPNPMEGMTEEQKEHEAMKLVTMFDKLSRNRVIQPMGMSPRGHLTSLQDAMCETMEQQLSSDPDSDPD
partner: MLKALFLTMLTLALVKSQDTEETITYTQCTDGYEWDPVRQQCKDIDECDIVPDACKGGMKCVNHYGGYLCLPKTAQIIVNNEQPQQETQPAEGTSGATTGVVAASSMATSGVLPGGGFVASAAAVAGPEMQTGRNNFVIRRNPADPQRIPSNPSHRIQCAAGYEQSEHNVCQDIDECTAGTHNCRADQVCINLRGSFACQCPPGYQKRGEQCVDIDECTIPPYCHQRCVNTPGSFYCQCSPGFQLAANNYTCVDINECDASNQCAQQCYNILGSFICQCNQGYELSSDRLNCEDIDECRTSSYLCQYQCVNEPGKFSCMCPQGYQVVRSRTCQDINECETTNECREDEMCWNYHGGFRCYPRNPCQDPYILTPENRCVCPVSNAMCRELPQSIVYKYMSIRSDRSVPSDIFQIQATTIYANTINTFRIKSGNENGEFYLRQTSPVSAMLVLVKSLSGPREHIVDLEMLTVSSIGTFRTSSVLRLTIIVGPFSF
B7: BTB/POZ domain-containing protein KCTD14 (Homo sapiens), Q9BQ13 (parent)
chain: MWQGCAVERPVGRMTSQTPLPQSPRPRRPTMSTVVELNVGGEFHTTTLGTLRKFPGSKLAEMFSSLAKASTDAEGRFFIDRPSTYFRPILDYLRTGQVPTQHIPEVYREAQFYEIKPLVKLLEDMPQIFGEQVSRKQFLLQVPGYSENLELMVRLARAEAITARKSSVLVCLVETEEQDAYYSEVLCFLQDKKMFKSVVKFGPWKAVLDNSDLMHCLEMDIKAQGYKVFSKFYLTYPTKRNEFHFNIYSFTFTWW

Variants of: B1
Settings: with tri27_human TRIM27, P14373

| Variant | effect of a mutation on the interaction |
| --- | --- |
| A349T | disrupting interaction strength |

Variants of: B2
Settings: with trim1_human MID2, Q9UJV3

| Variant | effect of a mutation on the interaction |
| --- | --- |
| R346W | with no effect |

Variants of: B3
Settings: with grn_human GRN

| Variant | effect of a mutation on the interaction |
| --- | --- |
| P145A | with no effect |

Variants of: B3
Settings: with cpin1_human CIAPIN1, Q6FI81
cpin1_human CIAPIN1, Q6FI81, sequence (Q6FI81 whole entry): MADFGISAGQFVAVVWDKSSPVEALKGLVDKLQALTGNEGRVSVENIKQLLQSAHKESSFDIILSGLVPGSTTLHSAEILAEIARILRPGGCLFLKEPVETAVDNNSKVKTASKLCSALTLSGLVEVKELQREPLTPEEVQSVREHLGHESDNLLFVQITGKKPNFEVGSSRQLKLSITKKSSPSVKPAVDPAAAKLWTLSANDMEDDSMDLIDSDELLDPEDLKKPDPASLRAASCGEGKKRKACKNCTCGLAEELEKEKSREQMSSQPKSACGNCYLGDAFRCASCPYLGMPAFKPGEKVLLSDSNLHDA

| Variant | effect of a mutation on the interaction |
| --- | --- |
| P145A | with no effect |

Variants of: B3
Settings: with tmm25_human TMEM25, Q86YD3
tmm25_human TMEM25, Q86YD3, sequence (Q86YD3 whole entry): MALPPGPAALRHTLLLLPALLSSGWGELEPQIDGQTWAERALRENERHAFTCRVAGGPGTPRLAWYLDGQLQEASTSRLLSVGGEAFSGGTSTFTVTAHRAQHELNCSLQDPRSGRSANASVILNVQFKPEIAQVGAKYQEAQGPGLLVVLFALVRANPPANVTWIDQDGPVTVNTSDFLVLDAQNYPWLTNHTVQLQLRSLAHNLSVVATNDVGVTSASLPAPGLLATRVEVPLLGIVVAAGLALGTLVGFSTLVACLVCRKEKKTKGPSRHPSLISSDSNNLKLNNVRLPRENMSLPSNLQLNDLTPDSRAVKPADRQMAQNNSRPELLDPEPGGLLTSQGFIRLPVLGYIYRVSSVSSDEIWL

| Variant | effect of a mutation on the interaction |
| --- | --- |
| P145A | with no effect |

Variants of: B4
Settings: with snab_human NAPB

| Variant | effect of a mutation on the interaction |
| --- | --- |
| K199E | disrupting interaction strength |

Variants of: B5
Settings: with sf3b4_human SF3B4, Q15427
sf3b4_human SF3B4, Q15427, sequence (Q15427 whole entry): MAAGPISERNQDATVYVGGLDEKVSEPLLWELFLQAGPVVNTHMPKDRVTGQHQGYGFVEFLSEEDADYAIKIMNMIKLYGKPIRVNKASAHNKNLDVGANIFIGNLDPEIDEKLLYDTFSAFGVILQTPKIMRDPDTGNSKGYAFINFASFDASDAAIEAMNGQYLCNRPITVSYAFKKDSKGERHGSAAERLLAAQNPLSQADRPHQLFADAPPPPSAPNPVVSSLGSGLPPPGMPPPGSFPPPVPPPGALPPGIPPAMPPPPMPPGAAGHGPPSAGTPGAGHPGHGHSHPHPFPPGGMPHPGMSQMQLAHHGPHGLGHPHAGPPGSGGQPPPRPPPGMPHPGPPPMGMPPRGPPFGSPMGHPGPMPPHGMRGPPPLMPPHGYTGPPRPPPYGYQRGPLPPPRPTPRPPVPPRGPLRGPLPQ

| Variant | effect of a mutation on the interaction |
| --- | --- |
| R212H | with no effect |

Variants of: B5
Settings: with mdfi_human MDFI

| Variant | effect of a mutation on the interaction |
| --- | --- |
| R212H | with no effect |

Variants of: B6
Settings: with fbln3_human EFEMP1, Q12805

| Variant | effect of a mutation on the interaction |
| --- | --- |
| K319E | with no effect |

Variants of: B7
Settings: with stk16_human STK16, O75716
stk16_human STK16, O75716, sequence (O75716 whole entry): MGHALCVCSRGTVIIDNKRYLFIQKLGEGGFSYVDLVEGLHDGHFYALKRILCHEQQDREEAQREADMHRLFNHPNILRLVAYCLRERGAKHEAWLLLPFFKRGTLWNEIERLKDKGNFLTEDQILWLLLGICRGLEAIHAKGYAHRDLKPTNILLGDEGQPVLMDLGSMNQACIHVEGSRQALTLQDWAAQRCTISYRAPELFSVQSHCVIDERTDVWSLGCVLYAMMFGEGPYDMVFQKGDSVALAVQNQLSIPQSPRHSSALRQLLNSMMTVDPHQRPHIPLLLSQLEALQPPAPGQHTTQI

| Variant | effect of a mutation on the interaction |
| --- | --- |
| V168M | disrupting interaction strength |

Source: IntAct's records for PubMed 29892012
